B1: Ac-DQTD-CHO (peptide)
peptide: Ac-DQTD-aldehyde
SMILES: CC(=O)N[C@@H](CC(=O)O)C(=O)N[C@@H](CCC(N)=O)C(=O)N[C@H](C(=O)N[C@H](C=O)CC(=O)O)[C@@H](C)O
notes: source: bought: Peptide Institute, Inc (synthetic peptide)
B2: Ac-DNLD-CHO (peptide)
peptide: Ac-DNLD-aldehyde
notes: tetrapeptide designed by the computational APF method; so far not known in any natural caspase substrate; source: synthetic peptide (synthesized by Peptide Institute, Inc)
B3: Ac-DMQD-CHO (peptide)
peptide: Ac-DMQD-aldehyde
SMILES: CSCC[C@H](NC(=O)[C@H](CC(=O)O)NC(C)=O)C(=O)N[C@@H](CCC(N)=O)C(=O)N[C@H](C=O)CC(=O)O
notes: as for B1
B4: Ac-DEVD-CHO (peptide)
peptide: Ac-DEVD-aldehyde
notes: as for B1

Key:
Assay in all cases: enzyme inhibition assay (fluorogenic substrate cleavage); one unit of active recombinant human caspase incubated with various concentrations of peptide inhibitor in 100 mM NaCl, 50 mM HEPES, 10 mM DTT, 1 mM EDTA, 10% glycerol, 0.1% CHAPS, pH 7.4, 37°C, 30 min; then 200 μM substrate (Ac-DEVD-MCA for caspases-3 and -7, Ac-IETD-MCA for caspase-8, Ac-LEHD-MCA for caspase-9); apparent Ki = IC50/(1+[S]/Km)
Details in all cases: both partners purified
[1] = target: T1, Recombinant human caspase-7 (active) (human, UniProt P55210 1-303)
[2] = target: T2, Recombinant human caspase-3 (active) (human, UniProt P42574 1-277)
[3] = target: Recombinant human caspase-8 (active) (human, UniProt Q14790 1-479)
[4] = target: T2, Recombinant human caspase-3 (active); remark: listed apart in the source
[5] = target: T1, Recombinant human caspase-7 (active); remark: listed apart in the source

T2 sequence (P42574 whole entry): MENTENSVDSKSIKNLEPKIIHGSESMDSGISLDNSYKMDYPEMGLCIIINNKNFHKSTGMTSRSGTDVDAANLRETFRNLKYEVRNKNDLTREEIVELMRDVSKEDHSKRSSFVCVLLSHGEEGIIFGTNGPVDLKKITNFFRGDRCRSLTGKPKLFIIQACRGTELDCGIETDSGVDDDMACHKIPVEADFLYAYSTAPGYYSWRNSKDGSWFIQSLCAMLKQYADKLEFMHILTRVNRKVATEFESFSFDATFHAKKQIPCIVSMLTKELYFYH
Chain of Recombinant human caspase-8 (active) (Q14790 whole entry): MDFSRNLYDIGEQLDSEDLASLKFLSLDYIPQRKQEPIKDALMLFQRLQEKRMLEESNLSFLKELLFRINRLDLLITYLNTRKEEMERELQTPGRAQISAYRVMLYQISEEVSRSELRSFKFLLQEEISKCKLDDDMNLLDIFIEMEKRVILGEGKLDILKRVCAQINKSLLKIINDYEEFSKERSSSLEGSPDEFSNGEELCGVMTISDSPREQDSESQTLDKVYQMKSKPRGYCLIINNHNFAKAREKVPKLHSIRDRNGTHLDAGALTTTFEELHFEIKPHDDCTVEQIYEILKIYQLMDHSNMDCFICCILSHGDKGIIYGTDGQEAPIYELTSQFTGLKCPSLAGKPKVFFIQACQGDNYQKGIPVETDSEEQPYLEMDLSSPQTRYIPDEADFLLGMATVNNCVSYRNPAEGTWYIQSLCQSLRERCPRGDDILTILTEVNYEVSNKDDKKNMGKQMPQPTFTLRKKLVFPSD
T1 sequence (P55210 whole entry): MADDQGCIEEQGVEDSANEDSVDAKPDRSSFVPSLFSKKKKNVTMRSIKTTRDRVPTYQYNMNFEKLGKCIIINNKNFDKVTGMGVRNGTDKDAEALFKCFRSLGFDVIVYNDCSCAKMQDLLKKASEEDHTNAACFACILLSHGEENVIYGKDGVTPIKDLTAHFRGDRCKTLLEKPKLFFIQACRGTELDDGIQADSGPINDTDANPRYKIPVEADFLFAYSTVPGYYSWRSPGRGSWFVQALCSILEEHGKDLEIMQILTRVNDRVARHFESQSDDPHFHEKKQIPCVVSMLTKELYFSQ

| Binder | Ki [1] [nM] | Ki [2] [nM] | Ki [3] [nM] | IC50 [4] [nM] | IC50 [5] [nM] |
| --- | --- | --- | --- | --- | --- |
| B1 | 21.8 ± 1.1 | 1.27 ± 0.11 | 9.75 ± 1.09 |  |  |
| B2 |  |  | > 200 |  |  |
| B3 | > 200 | 13.3 ± 0.3 | > 200 | 193 |  |
| B4 | 4.48 ± 0.21 |  | 0.597 ± 0.095 |  | 19.7 |

— PMC1931592 (BMC Pharmacology, 2007)
